Measurements as given in publication PMC8200828, “Phylogenetic and Structural Analysis of NIN-Like Proteins With a Type I/II PB1 Domain That Regulates Oligomerization for Nitrate Response” (Frontiers in Plant Science, 2021).

Tests used:
[1] = target: the molecule itself; assay: SEC; Superdex S-75 in buffer C (20 mM Tris pH 8.8, 0.5 M NaCl, 10% glycerol, 5 mM GSH, 1 mM TCEP), calibrated with gel filtration standard markers; self-association
[2] = target: the molecule itself; assay: dynamic light scattering; protein at 2 mg/mL, after SEC, 25 °C; self-association

B1: Arabidopsis thaliana NLP7 (AtNLP7) PB1 domain, wild type (domain or fragment, UniProt Q84TH9 863-945, looked up)
chain: TVTIKASYKDDIIRFRISSGSGIMELKDEVAKRLKVDAGTFDIKYLDDDNEWVLIACDADLQECLEIPRSSRTKIVRLLVHDV
notes: NIN-like protein 7 (AtNLP7), Arabidopsis thaliana, PB1 domain at the C-terminus of AtNLP7; PCR-amplified from plasmid pDL2Nx-NLP7 PB1 with the printed primers PB1-EcoRI and PB1-HindIII, subcloned into pET28a; A thrombin cleavage site follows the N-terminal His6 tag; no cleavage step is described and the purified protein is called 6xHis-NLP7 PB1 (15.6 kDa); also called NLP7 PB1wt; 6xHis-NLP7 PB1 …
B1 was tested, and the “stoichiometry N” value [1] was 2 and the “stoichiometry N” value [2] was 4.
